The record followed here is IntAct's records for PubMed 19151722.

First the molecules themselves.
B1: Protein transport protein TIP20 (Saccharomyces cerevisiae), P33891 (parent)
chain: MNGIDDLLNINDRIKQVQNERNELASKLQNLKQSLASNDTEVALSEVIAQDIIEVGASVEGLEQLRAKYGDLQILNKLEKVAVQQTQMQAGVDKLDSFERQLDELAEQPPDQFTLDDVKALHSKLTSVFATVPQINNIDSQYAAYNKLKSKVTGKYNDVIIQRLATNWSNTFDQKLLEAQWDTQKFASTSVGLVKCLRENSTKLYQLSLLYLPLEEETQNGDSERPLSRSNNNQEPVLWNFKSLANNFNVRFTYHFHATSSSSKIETYFQFLNDYLAENLYKCINIFHDDCNGLTKPVIHEQFINYVLQPIRDKVRSTLFQNDLKTLIVLISQILATDKNLLNSFHYHGLGLVSLISDEVWEKWINYEVEMANRQFINITKNPEDFPKSSQNFVKLINKIYDYLEPFYDLDFDLLVRYKLMTCSLIFMNLTSSYLDYILTVDSLNETRTKEQELYQTMAKLQHVNFVYRKIKSLSSNFIFIQLTDIVNSTESKKYNSLFQNVENDYEKAMSTDMQNSIVHRIQKLLKETLRNYFKISTWSTLEMSVDENIGPSSVPSAELVNSINVLRRLINKLDSMDIPLAISLKVKNELLNVIVNYFTESILKLNKFNQNGLNQFLHDFKSLSSILSLPSHATNYKCMSLHELVKILKLKYDPNNQQFLNPEYIKTGNFTSLKEAYSIKYLKDTKIQDALYRIIYGNIL
partner: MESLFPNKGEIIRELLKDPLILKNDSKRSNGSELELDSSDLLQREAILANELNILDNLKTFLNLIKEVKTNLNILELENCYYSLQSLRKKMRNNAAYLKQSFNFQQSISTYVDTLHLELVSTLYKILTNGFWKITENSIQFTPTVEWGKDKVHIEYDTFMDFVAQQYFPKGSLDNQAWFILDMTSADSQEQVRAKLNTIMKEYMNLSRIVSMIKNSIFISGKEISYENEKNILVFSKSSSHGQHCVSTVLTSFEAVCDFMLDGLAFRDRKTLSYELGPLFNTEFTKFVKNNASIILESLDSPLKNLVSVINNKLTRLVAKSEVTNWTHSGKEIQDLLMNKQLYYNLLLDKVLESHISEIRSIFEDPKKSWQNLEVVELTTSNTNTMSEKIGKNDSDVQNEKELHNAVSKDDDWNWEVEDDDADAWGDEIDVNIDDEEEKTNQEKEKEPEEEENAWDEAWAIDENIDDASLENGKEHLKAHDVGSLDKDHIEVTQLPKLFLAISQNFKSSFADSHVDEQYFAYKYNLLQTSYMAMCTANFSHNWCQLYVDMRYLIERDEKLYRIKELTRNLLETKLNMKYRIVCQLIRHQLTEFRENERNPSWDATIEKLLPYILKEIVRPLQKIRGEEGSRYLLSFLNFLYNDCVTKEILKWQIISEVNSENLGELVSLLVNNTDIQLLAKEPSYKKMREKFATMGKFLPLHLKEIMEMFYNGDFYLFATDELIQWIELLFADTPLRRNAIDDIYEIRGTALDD
B2: Protein transport protein DSL1 (Saccharomyces cerevisiae), P53847 (parent)
chain: B1 partner
partner: B1 chain

The variants in one assay derive from B1. As to conditions: with dsl1_yeast DSL1, P53847.
With V17E, the “effect of a mutation on the interaction” value is given as “disrupting interaction”.
With I10D;L28E, the “effect of a mutation on the interaction” value is “disrupting interaction”.

Another assay covers variants of B2. As to conditions: with tip20_yeast TIP20, P33891.
L58D: the “effect of a mutation on the interaction” value is on record as “disrupting interaction”.
Take L48E: the “effect of a mutation on the interaction” value is reported as “disrupting interaction”.
Same read-out and setting: in the case of L55E it was “disrupting interaction”.
